± gives the uncertainty stated by the source.

The series in a line: abundance fitness (aPCA) (normalised: wild type 0, dead -1); higher = more abundant; growth selection in yeast, the domain comes from the species named. The conditions noted are these: Homo sapiens.
Take “Scaffold attachment factor B2 E58H, Q14151”: the abundance fitness was -0.338 ± 0.15.

For “Scaffold attachment factor B2 E58I, Q14151”, the abundance fitness was -0.576 ± 0.11.

As for “Scaffold attachment factor B2 E58K, Q14151”, the abundance fitness is -0.44 ± 0.17.

“Scaffold attachment factor B2 E58L, Q14151”: the abundance fitness was -0.439 ± 0.077.

With “Scaffold attachment factor B2 E58M, Q14151”, the abundance fitness is -0.162 ± 0.11.

Consider “Scaffold attachment factor B2 E58N, Q14151”, for which the abundance fitness is -0.201 ± 0.099.

In the case of “Scaffold attachment factor B2 E58P, Q14151”, the abundance fitness is -0.612 ± 0.09.

Consider “Scaffold attachment factor B2 E58Q, Q14151”, for which the abundance fitness was -0.319 ± 0.11.

For “Scaffold attachment factor B2 E58R, Q14151”, the abundance fitness was -0.247 ± 0.072.

Regarding “Scaffold attachment factor B2 E58T, Q14151”, the abundance fitness was -0.203 ± 0.091.

As to “Scaffold attachment factor B2 E58V, Q14151”, the abundance fitness was -0.616 ± 0.076.

In the case of “Scaffold attachment factor B2 E66A, Q14151”, the abundance fitness was -0.092 ± 0.091.

For the substance “Scaffold attachment factor B2 E66C, Q14151”, the abundance fitness is -0.157 ± 0.13.

Consider “Scaffold attachment factor B2 E66D, Q14151”, for which the abundance fitness is -0.042 ± 0.13.

For the substance “Scaffold attachment factor B2 E66F, Q14151”, the abundance fitness was -0.417 ± 0.13.

Regarding “Scaffold attachment factor B2 E66G, Q14151”, the abundance fitness was -0.108 ± 0.083.

For “Scaffold attachment factor B2 E66H, Q14151”, the abundance fitness was -0.214 ± 0.11.

For “Scaffold attachment factor B2 E66I, Q14151”, the abundance fitness was -0.207 ± 0.15.

As for “Scaffold attachment factor B2 E66K, Q14151”, the abundance fitness is -0.5 ± 0.26.

For the substance “Scaffold attachment factor B2 E66L, Q14151”, the abundance fitness is -0.247 ± 0.1.

For “Scaffold attachment factor B2 E66M, Q14151”, the abundance fitness was -0.329 ± 0.12.

As for “Scaffold attachment factor B2 E66N, Q14151”, the abundance fitness was -0.322 ± 0.26.

With “Scaffold attachment factor B2 E66P, Q14151”, the abundance fitness is -0.485 ± 0.16.

“Scaffold attachment factor B2 E66R, Q14151”: the abundance fitness is -0.131 ± 0.071.

In the case of “Scaffold attachment factor B2 E66T, Q14151”, the abundance fitness was -0.301 ± 0.21.

As for “Scaffold attachment factor B2 E66V, Q14151”, the abundance fitness is -0.232 ± 0.1.

Turning to “Scaffold attachment factor B2 E66W, Q14151”, the abundance fitness was -0.365 ± 0.12.

Consider “Scaffold attachment factor B2 E67A, Q14151”, for which the abundance fitness is -0.23 ± 0.12.

On to “Scaffold attachment factor B2 E67C, Q14151”, for which the abundance fitness is -0.433 ± 0.12.

“Scaffold attachment factor B2 E67H, Q14151”: the abundance fitness was -0.218 ± 0.4.

For “Scaffold attachment factor B2 E67L, Q14151”, the abundance fitness is -0.495 ± 0.094.

Consider “Scaffold attachment factor B2 E67M, Q14151”, for which the abundance fitness was -0.525 ± 0.11.

For the substance “Scaffold attachment factor B2 E67P, Q14151”, the abundance fitness is -0.377 ± 0.12.

As to “Scaffold attachment factor B2 E67Q, Q14151”, the abundance fitness was -0.246 ± 0.1.

In the case of “Scaffold attachment factor B2 E67R, Q14151”, the abundance fitness was -0.445 ± 0.1.

For the substance “Scaffold attachment factor B2 E67S, Q14151”, the abundance fitness was -0.226 ± 0.095.

For the substance “Scaffold attachment factor B2 E67T, Q14151”, the abundance fitness is -0.381 ± 0.1.

On to “Scaffold attachment factor B2 E67V, Q14151”, for which the abundance fitness was -0.333 ± 0.1.

“Scaffold attachment factor B2 E67W, Q14151”: the abundance fitness was -0.85 ± 0.11.

Take “Scaffold attachment factor B2 E67Y, Q14151”: the abundance fitness is -0.889 ± 0.34.

On to “Scaffold attachment factor B2 G50A, Q14151”, for which the abundance fitness was -0.099 ± 0.089.

On to “Scaffold attachment factor B2 G50C, Q14151”, for which the abundance fitness is -0.082 ± 0.12.

With “Scaffold attachment factor B2 G50D, Q14151”, the abundance fitness is -0.171 ± 0.12.

Regarding “Scaffold attachment factor B2 G50E, Q14151”, the abundance fitness was -0.119 ± 0.084.

“Scaffold attachment factor B2 G50F, Q14151”: the abundance fitness is -0.51 ± 0.17.

For the substance “Scaffold attachment factor B2 G50H, Q14151”, the abundance fitness is -0.108 ± 0.093.

On to “Scaffold attachment factor B2 G50L, Q14151”, for which the abundance fitness was -0.194 ± 0.08.

With “Scaffold attachment factor B2 G50M, Q14151”, the abundance fitness is -0.114 ± 0.11.

With “Scaffold attachment factor B2 G50N, Q14151”, the abundance fitness was -0.065 ± 0.1.

On to “Scaffold attachment factor B2 G50P, Q14151”, for which the abundance fitness was -1.01 ± 0.16.

Take “Scaffold attachment factor B2 G50Q, Q14151”: the abundance fitness was -0.329 ± 0.12.

The substance “Scaffold attachment factor B2 G50R, Q14151” registered an abundance fitness of 0.05 ± 0.079.

Take “Scaffold attachment factor B2 G50S, Q14151”: the abundance fitness was -0.077 ± 0.11.

“Scaffold attachment factor B2 G50T, Q14151”: the abundance fitness is -0.096 ± 0.17.

With “Scaffold attachment factor B2 G50V, Q14151”, the abundance fitness is -0.015 ± 0.08.

Regarding “Scaffold attachment factor B2 G50W, Q14151”, the abundance fitness was -0.26 ± 0.089.

For “Scaffold attachment factor B2 G51C, Q14151”, the abundance fitness is -0.517 ± 0.13.

On to “Scaffold attachment factor B2 G51D, Q14151”, for which the abundance fitness is -0.7 ± 0.14.

Take “Scaffold attachment factor B2 G51E, Q14151”: the abundance fitness was -0.426 ± 0.094.

As to “Scaffold attachment factor B2 G51F, Q14151”, the abundance fitness was -0.882 ± 0.19.

On to “Scaffold attachment factor B2 G51I, Q14151”, for which the abundance fitness is -1.25 ± 0.4.

Consider “Scaffold attachment factor B2 G51K, Q14151”, for which the abundance fitness is -0.786 ± 0.15.

As to “Scaffold attachment factor B2 G51L, Q14151”, the abundance fitness is -0.908 ± 0.087.

As to “Scaffold attachment factor B2 G51M, Q14151”, the abundance fitness was -0.853 ± 0.12.

For “Scaffold attachment factor B2 G51N, Q14151”, the abundance fitness was -0.833 ± 0.25.

As to “Scaffold attachment factor B2 G51P, Q14151”, the abundance fitness is -0.998 ± 0.26.

As to “Scaffold attachment factor B2 G51Q, Q14151”, the abundance fitness is -0.704 ± 0.096.

For the substance “Scaffold attachment factor B2 G51R, Q14151”, the abundance fitness was -0.794 ± 0.072.

In the case of “Scaffold attachment factor B2 G51S, Q14151”, the abundance fitness was -0.597 ± 0.085.

On to “Scaffold attachment factor B2 G51T, Q14151”, for which the abundance fitness is -0.633 ± 0.1.

“Scaffold attachment factor B2 G51V, Q14151”: the abundance fitness was -0.729 ± 0.084.

Take “Scaffold attachment factor B2 G51W, Q14151”: the abundance fitness was -1.41 ± 0.1.

On to “Scaffold attachment factor B2 G68A, Q14151”, for which the abundance fitness came out at 0.004 ± 0.094.

Substance “Scaffold attachment factor B2 G68E, Q14151” gave an abundance fitness of 0.166 ± 0.095.

As to “Scaffold attachment factor B2 G68F, Q14151”, the abundance fitness is -0.509 ± 0.17.

In the case of “Scaffold attachment factor B2 G68I, Q14151”, the abundance fitness was -0.551 ± 0.099.

In turn, “Scaffold attachment factor B2 G68K, Q14151” returned an abundance fitness of 0.232 ± 0.25.

In the case of “Scaffold attachment factor B2 G68L, Q14151”, the abundance fitness was -0.365 ± 0.098.

Consider “Scaffold attachment factor B2 G68M, Q14151”, for which the abundance fitness is -0.33 ± 0.12.

For the substance “Scaffold attachment factor B2 G68P, Q14151”, the abundance fitness was -0.19 ± 0.13.

Turning to “Scaffold attachment factor B2 G68Q, Q14151”, the abundance fitness was -0.078 ± 0.1.

“Scaffold attachment factor B2 G68S, Q14151”: the abundance fitness is -0.178 ± 0.12.

Turning to “Scaffold attachment factor B2 G68T, Q14151”, the abundance fitness is -0.026 ± 0.12.

For the substance “Scaffold attachment factor B2 G68V, Q14151”, the abundance fitness was -0.169 ± 0.092.

Substance “Scaffold attachment factor B2 I36A, Q14151” yielded an abundance fitness of 0.153 ± 0.082.

“Scaffold attachment factor B2 I36C, Q14151” came in with an abundance fitness of 0.086 ± 0.099.

With “Scaffold attachment factor B2 I36D, Q14151”, the abundance fitness was found to be 0.206 ± 0.18.

In turn, “Scaffold attachment factor B2 I36E, Q14151” came in with an abundance fitness of 0.157 ± 0.13.

Consider “Scaffold attachment factor B2 I36F, Q14151”, for which the abundance fitness was -0.507 ± 0.17.

Substance “Scaffold attachment factor B2 I36G, Q14151” displayed an abundance fitness of 0.066 ± 0.068.

With “Scaffold attachment factor B2 I36H, Q14151”, the abundance fitness was -0.208 ± 0.2.

“Scaffold attachment factor B2 I36K, Q14151” returned an abundance fitness of 0.04 ± 0.089.

“Scaffold attachment factor B2 I36L, Q14151”: the abundance fitness is -0.103 ± 0.087.

“Scaffold attachment factor B2 I36M, Q14151” had an abundance fitness of 0.043 ± 0.17.

For the substance “Scaffold attachment factor B2 I36N, Q14151”, the abundance fitness was -0.073 ± 0.13.

In turn, “Scaffold attachment factor B2 I36P, Q14151” showed an abundance fitness of 0.067 ± 0.096.

The record behind these values is the Human Domainome abundance scans (Beltran et al. 2025).
